Experimental data from PMC9385847.

Target: endogenous mTOR (mechanistic target of rapamycin) (mouse (endogenous in brain and MEFs)) (UniProt Q9JLN9)
Assay: co-IP; anti-mTOR on Protein G beads; whole brain lysates of wild type or Thorase KO mice in buffer A, 1% Triton X-100, with or without 2 mM ADP, ATP or ATPγS, 4 °C; immunoblot

percent dissociated from mTOR (Thorase KO brain): 20%
percent dissociated from mTOR (wild type brain): 80%
Substance: endogenous S6K (from UniProt Q8BSK8 1-525) (enzyme)
